Test results taken from patent publication US20100184663A1 (UNIVERSITY OF UTAH RESEARCH FOUNDATION, published 2010).
Read-outs that look alike come from different tables or passages of the source. Bridge positions count the residues as written; N and C are the ends. Square brackets hold non-standard residues; d marks the D form. Ends that are not written are not given here. I, II: the chains in the order shown.

B1: PIE2-AAA (peptide)
peptide: Ac-[dK]G[dA][dC][dD][dY][dP][dE][dW][dR][dW][dL][dC][dA][dA][dA]-NH2
modifications: disulfide 4-13 (inferred)
B2: D10-p5 (peptide)
peptide: Ac-[dK][dK]G[dA][dC][dE][dL][dL]G[dW][dE][dW][dA][dW][dL][dC][dA][dA]-NH2
modifications: disulfide 5-16 (inferred)
B3: 2K-PIE2 (peptide)
peptide: Ac-[dK][dK]G[dA][dC][dD][dY][dP][dE][dW][dR][dW][dL][dC][dA][dA]-NH2
modifications: disulfide 5-14 (inferred)
B4: PIE7 (peptide)
peptide: Ac-[dK]G[dA][dC][dD][dY][dP][dE][dW][dQ][dW][dL][dC][dA][dA]-NH2
modifications: disulfide 4-13 (inferred)
B5: PIE7-GK long claw (peptide)
peptide: G[dA][dC][dD][dY][dP][dE][dW][dQ][dW][dL][dC][dA][dA]G[dK]
modifications: disulfide 3-12 (inferred); also: three peptides attached to central scaffold LC-TSAT (six-atom spacer), site not given here
B6: PEG-PIE7 (peptide)
peptide: Ac-KG[dA][dC][dD][dY][dP][dE][dW][dQ][dW][dL][dC][dA][dA]-NH2
modifications: disulfide 4-13 (inferred); not fully specified (residue 1)
B7: PEG-(PIE7)2 (peptide)
peptide: Ac-[dK]G[dA][dC][dD][dY][dP][dE][dW][dQ][dW][dL][dC][dA][dA]-NH2
modifications: disulfide 4-13 (inferred); also: dimer: N-terminal Lys of both peptides joined by Bis-dPEG9 NHS ester crosslinker
B8: PIE8 (peptide)
peptide: Ac-[dK]G[dA][dC][dD][dY][dK][dE][dW][dQ][dW][dL][dC][dA][dA]-NH2
modifications: disulfide 4-13 (inferred)
B9: PIE7-GK short claw (peptide)
peptide: G[dA][dC][dD][dY][dP][dE][dW][dQ][dW][dL][dC][dA][dA]G[dK]
modifications: disulfide 3-12 (inferred); also: three peptides attached directly to central scaffold TSAT, site not given here
B10: C5C(PIE7-GK)3 (peptide)
peptide 1: G[dA][dC][dD][dY][dP][dE][dW][dQ][dW][dL][dC][dA][dA]G[dK]
peptide 2: G[dA][dC][dD][dY][dP][dE][dW][dQ][dW][dL][dC][dA][dA]G[dK][dK]
modifications: disulfide I:3-I:12, II:3-II:12 (inferred); also: trimer: two chain 1 copies joined via C-terminal Lys by PEG5 spacers to the C-terminal Lys of central chain 2
B11: PIE2 (peptide)
peptide: Ac-[dK]G[dA][dC][dD][dY][dP][dE][dW][dR][dW][dL][dC][dA][dA]-NH2
modifications: disulfide 4-13 (inferred)
B12: PEG-(PIE2-AAA)2 (peptide)
peptide: Ac-[dK]G[dA][dC][dD][dY][dP][dE][dW][dR][dW][dL][dC][dA][dA][dA]-NH2
modifications: disulfide 4-13 (inferred); also: dimer: N-terminal Lys of both peptides joined by bis(NHS-ester)PEG crosslinker

Experiments:
Assay in all cases: cell-based or functional assay
HIV-1 gp41 (HXB2 strain) [1] = biological target: T1, HIV-1 gp41 (HXB2 strain) (HIV-1 HXB2, UniProt P04578 512-856)
HIV-1 gp41 (HXB2 strain) [2] = biological target: T1, HIV-1 gp41 (HXB2 strain); remark: listed apart in the source
HIV-1 gp41 (JRFL strain) [3] = biological target: HIV-1 gp41 (JRFL strain) (HIV-1 JRFL)
HIV-1 gp41 (HXB2 strain) [4] = biological target: T1, HIV-1 gp41 (HXB2 strain); remark: listed apart in the source
HIV-1 gp41 (JRFL strain) [5] = biological target: HIV-1 gp41 (JRFL strain) (HIV-1 JRFL); remark: listed apart in the source

Binder | IC50 (HXB2), single-cycle viral infectivity assay (HIV-1 gp41 (HXB2 strain) [1]) | IC50 (HXB2), pseudovirion entry (HIV-1 gp41 (HXB2 strain) [4]) | IC50 (JRFL), pseudovirion entry (HIV-1 gp41 (JRFL strain) [5]) | also measured
B1 | 1440 nM | – | – | –
B2 | 9510 nM | – | – | –
B3 | 2570 nM | – | – | fold decrease in fold potency against PIE2, viral entry (HXB2) (HIV-1 gp41 (HXB2 strain) [2]): ~2 fold
B4 | 620 nM | 620 nM | 24000 nM | fold potency against D10-p5, viral entry (HXB2) (HIV-1 gp41 (HXB2 strain) [2]): ~15 fold; IC50 (JRFL), viral entry (HIV-1 gp41 (JRFL strain) [3]): 24400 nM; fold reduction in potency against JRFL compared with HXB2 (HIV-1 gp41 (JRFL strain) [3]): ~40 fold
B5 | – | 0.124 nM | 20.6 nM | –
B6 | 940 nM | – | – | fold reduction in potency against unmodified PIE7, viral entry (HXB2) (HIV-1 gp41 (HXB2 strain) [2]): ~1.5 fold
B7 | 1.9 nM | 1.9 nM | 2300 nM | fold improvement of IC50 over the corresponding monomer (HIV-1 gp41 (HXB2 strain) [2]): ~325 fold
B8 | 1680 nM | – | – | –
B9 | – | 0.234 nM | 86.6 nM | –
B10 | – | 0.13 nM | 6.73 nM | fold difference in potency against JRFL between C5C-PIE7-trimer and N9N-PIE7-trimer (HIV-1 gp41 (JRFL strain) [3]): ~35 fold
B11 | 1320 nM | – | – | –
B12 | – | – | – | IC50 (HXB2), single-cycle viral infectivity assay (HIV-1 gp41 (HXB2 strain) [2]): 21 nM; fold improvement of IC50 over the corresponding monomer (HIV-1 gp41 (HXB2 strain) [2]): ~70 fold
